# Measurements taken from article PMC5063714 (Journal of medicinal chemistry, 2016).
# Read-outs that look alike come from different tables or passages of the source. Square brackets hold non-standard residues; d marks the D form. Ends that are not written are not given here. * marks the point of attachment. Lys(Me3) = C[N+](C)(C)CCCC[C@H](N)C(=O)O; diethyl = not defined here; Bz = O=C(c1ccccc1)*
# T1: chromodomain of CDYL2 (human) (UniProt Q8N8U2)
# T1 sequence: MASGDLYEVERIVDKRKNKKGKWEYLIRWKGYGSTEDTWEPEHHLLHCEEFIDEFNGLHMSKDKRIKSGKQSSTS
# T2: chromodomain of CBX4 (human, UniProt O00257-1 8-65)
# T2 sequence (looked up): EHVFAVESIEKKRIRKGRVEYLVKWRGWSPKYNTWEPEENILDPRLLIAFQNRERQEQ
# T3: chromodomain of CDYL2 (human, UniProt Q8N8U2 1-75)
# T3 sequence (looked up): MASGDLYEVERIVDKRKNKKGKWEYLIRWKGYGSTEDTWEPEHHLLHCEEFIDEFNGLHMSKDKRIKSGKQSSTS
# T4: chromodomain of CBX7 (human, UniProt O95931 8-62)
# T4 sequence (looked up): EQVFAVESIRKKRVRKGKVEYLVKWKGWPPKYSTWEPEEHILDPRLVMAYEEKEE
# T5: chromodomain of CBX8 (human, UniProt Q9HC52 8-61)
# T5 sequence (looked up): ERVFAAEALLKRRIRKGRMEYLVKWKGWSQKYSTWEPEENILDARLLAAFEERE
# Assays:
# Assay in all cases: AlphaScreen or HTRF
# [1] = target: chromodomain of CBX8 (human) (UniProt Q9HC52)
# [2] = target: T1, chromodomain of CDYL2 (human)
# [3] = target: chromodomain of CBX4 (human) (UniProt O00257)
# [4] = target: chromodomain of CBX8 (human) (UniProt Q9HC52); remark: listed apart in the source
# [5] = target: chromodomain of CBX7 (human) (UniProt O95931)
# chromodomain of CBX5 [6] = target: chromodomain of CBX5 (human)
# Sequence of chromodomain of CBX5 (human) (Q9UN86 18-75): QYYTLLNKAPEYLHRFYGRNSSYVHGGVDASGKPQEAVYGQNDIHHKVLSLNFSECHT
# chromodomain of CBX4 [7] = target: T2, chromodomain of CBX4
# chromodomain of CDYL2 [8] = target: T3, chromodomain of CDYL2
# chromodomain of CBX7 [9] = target: T4, chromodomain of CBX7
# chromodomain of CBX4 [10] = target: T2, chromodomain of CBX4; remark: listed apart in the source
# chromodomain of CDYL2 [11] = target: T3, chromodomain of CDYL2; remark: listed apart in the source
# chromodomain of CBX8 = target: T5, chromodomain of CBX8
# chromodomain of CBX7 [12] = target: T4, chromodomain of CBX7; remark: listed apart in the source
# chromodomain of CBX5 [13] = target: chromodomain of CBX5 (human); remark: listed apart in the source
Molecule,IC50 [2] [µM],IC50 [3] [µM],IC50 [4] [µM],IC50 [5] [µM],IC50 (chromodomain of CBX5 [6]) [µM],other results
compound 1 (UNC3866) (peptide),,,,,,IC50 [1]: 1300 nM
Bz-FAL[Lys(Me3)]S-OMe [compound 5],,,,,49,IC50 (chromodomain of CBX4 [7]): 6.9 µM; IC50 (chromodomain of CDYL2 [8]): 570 nM; IC50 (chromodomain of CBX7 [9]): 2600 nM
{4‑tBu‑Bz}-FVLK(diethyl)S-OMe (reading uncertain) [compound 43],,,,,,IC50 (chromodomain of CBX4 [10]): 7.9 µM; IC50 (chromodomain of CDYL2 [11]): 750 nM; IC50 (chromodomain of CBX8): 700 nM; IC50 (chromodomain of CBX7 [12]): 3.1 µM; IC50 (chromodomain of CBX5 [13]): > 60 µM

# Further lines, with some results ahead:
IC50 [2] [µM],IC50 [3] [µM],IC50 [4] [µM],IC50 [5] [µM],IC50 (chromodomain of CBX5 [6]) [µM],Molecule,other results
37,> 60,> 60,> 60,> 60,Bz-FAL[Lys(Me3)] (also: C-terminal R2 = -H in place of -CO-Ser-OMe (no Ser)) [compound 7],
16,> 60,> 60,> 60,> 60,Bz-AL[Lys(Me3)]S-OMe (SMILES COC(=O)[C@H](CO)NC(=O)[C@H](CCCC[N+](C)(C)C)NC(=O)[C@H](CC(C)C)NC(=O)[C@H](C)NC(=O)c1ccccc1) [compound 4],
